# In patent US20220073608A1 (JIANGSU HUAIYU PHARMACEUTICAL, published 2022):
# T1: hSEMA4D ECD-His (His-tagged human SEMA4D protein extracellular domain, Met22-Arg734) (human, UniProt Q92854 22-734)
# T1 construct: Expressed in CHO-S cells, purified on Ni column; also called protein immunogen; immunogen A; not shown: His tag of the pCP vector
# T1 sequence: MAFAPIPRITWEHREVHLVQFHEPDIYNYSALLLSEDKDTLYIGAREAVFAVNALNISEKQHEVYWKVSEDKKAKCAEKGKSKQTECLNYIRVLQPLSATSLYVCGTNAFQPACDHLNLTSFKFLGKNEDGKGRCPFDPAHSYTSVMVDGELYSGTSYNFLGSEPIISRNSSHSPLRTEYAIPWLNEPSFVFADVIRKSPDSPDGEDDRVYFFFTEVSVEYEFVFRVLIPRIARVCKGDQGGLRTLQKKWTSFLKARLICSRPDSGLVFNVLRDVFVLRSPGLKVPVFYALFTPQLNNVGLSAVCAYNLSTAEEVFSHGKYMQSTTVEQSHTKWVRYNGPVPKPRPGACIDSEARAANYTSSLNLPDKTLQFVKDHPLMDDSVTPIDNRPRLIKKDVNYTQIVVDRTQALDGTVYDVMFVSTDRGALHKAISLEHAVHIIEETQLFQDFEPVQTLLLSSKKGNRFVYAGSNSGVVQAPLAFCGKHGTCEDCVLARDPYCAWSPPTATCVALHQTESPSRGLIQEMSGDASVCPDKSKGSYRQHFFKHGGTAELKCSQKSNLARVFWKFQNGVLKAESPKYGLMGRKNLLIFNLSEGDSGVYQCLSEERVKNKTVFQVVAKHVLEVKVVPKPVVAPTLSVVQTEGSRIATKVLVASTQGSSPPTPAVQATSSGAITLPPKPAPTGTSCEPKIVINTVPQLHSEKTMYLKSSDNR
# Target: T1, hSEMA4D ECD-His (His-tagged human …)
# Assay: SPR (Biacore), antibody captured on anti-human Fc CM5 chip, hSEMA4D ECD-His 100 nM as analyte, 1:1 fit
# Description: The anti-human Fc IgG (purchased from Geneway) was coupled and immobilized on the surface of the CM5 chip (purchased from GE) by the amino coupling method, and FC1 was used as the reference channel. The coupling and immobilization process was as follows: the freshly prepared mixture of 50 mM N-hydroxysuccinimide (NHS) and 200 mM 1-(3-dimethylaminopropyl)-3-ethylcarbodiimide hydrochloride (EDC) with a molar ratio of […] was used to activate the chip. Then 10-50 μg/mL anti-human Fc IgG diluted in 10 mM sodium acetate buffer (pH 5.0) was injected. The remaining activated sites were blocked with 1M ethanolamine. Then, buffer containing HBS-EP was used to dilute the 2D5-b1-3D9 antibody prepared to 5 ug/ml and the antibodies were captured on the chip at a flow rate of 10 ul/min to obtain a response value of about 100-300RU. Then, the purified hSEMA4D ECD-His was diluted to 100 nM and let flow across the chip surface at a flow rate of 30 μL/min. At the end of each cycle, the chip surface was regenerated with 10 mM Glycine at pH 1.5. The kinetic rate constant needed to be subtracted from the blank control, and the data was fitted with the global fit analysis method 1:1 combined with the model (see the Biacore operation manual for operation). The dissociation equilibrium rate constant (KD) was calculated according to the following formula: KD=kd/ka, wherein Kd is the dissociation constant and Ka is the binding constant.
Binder,Kd [nM],koff [s⁻¹],kon [M⁻¹ s⁻¹]
"2D5-b1 (antibody, V domains shown, Framework back-mutated variant of 2D5; the parent 2D5 was human IgG4 (S228P)/lambda; captured by anti-human Fc in the SPR assay) VH: QVTLRESGPALVKPTQTLTLTCTFSGFSLTTTGVAVTWIRQPPGKALEWLALIDWDDDKYYSTSLKTRLTISKDTSKNQVVLTMTNMDPVDTATYYCARIASGDSGGYFADWGQGTLVTVSS VL: SYELTQPPSVSVSPGQTASITCSGDKLDDKYVYWYQQKPGQSPVLVIYRDNKRPSGIPERFSGSNSGNTATLTISGTQAMDEADYYCQAWESSSDQYVFGTGTKVTVL",2.01,0.00103,511000
"2D5-b1-3D9 (antibody, human IgG4, V domains shown, also called 2D5-b1-3D9 antibody) VH: QVTLRESGPALVKPTQTLTLTCTFSGFSLTTTGVAVTWIRQPPGKALEWLALIDWDDDKYYSTSLKTRLTISKDTSKNQVVLTMTNMDPVDTATYYCARIASGDSGGYFADWGQGTLVTVSS VL: SYELTQPPSVSVSPGQTASITCSGDKLDDKYVYWYQQKPGQSPVLVIYMDNKRKSGIPERFSGSNSGNTATLTISGTQAMDEADYYCQAWESSSDQYVFGTGTKVTVL",0.184,0.000107,583000
